Measured values reported in PMC11559089.

Tests used:
[1] = biological target: full-length WT HIV-1 integrase (IN) (HIV-1); assay: SEC; Superdex 200 10/300 GL; 20 µM IN; 20 mM HEPES pH 7.5, 1 M NaCl, 10% glycerol, 5 mM BME; 0.3 mL/min; incubated 1 h at 4°C; size by protein standards; no inhibitor
[2] = biological target: full-length HIV-1 integrase Y99H/A128T (HIV-1); assay: as above

Row | Substance | stoichiometry N [1] | stoichiometry N [2]
1 | full-length WT HIV-1 integrase (IN) (enzyme) | 4 | –
2 | full-length HIV-1 integrase Y99H/A128T (enzyme) | – | 4
